# Biological target: HCMV gHgLgO trimer with gO249 mutant, from virions (human cytomegalovirus, strain TB40/E (TB40-BAC4))
# Test: co-IP + pull-down
substance,measurement,value
"HCMV glycoprotein gB, from virions (natural protein)",fold change of the interaction with gB against gHgLgOWT,4 fold

# — publication doi:10.1101/2024.11.29.625639
